In PMC9132103 (Science (New York, N.Y.), 2021):

Tests used:
cryo-EM structure = molecular target: the molecule itself; test: cryo-EM structure
[1] = molecular target: T1, IL-10Rα ECD, from Expi-293 cells (for structural studies) (human, UniProt Q13651 20-235); test: SEC
T1 sequence (looked up): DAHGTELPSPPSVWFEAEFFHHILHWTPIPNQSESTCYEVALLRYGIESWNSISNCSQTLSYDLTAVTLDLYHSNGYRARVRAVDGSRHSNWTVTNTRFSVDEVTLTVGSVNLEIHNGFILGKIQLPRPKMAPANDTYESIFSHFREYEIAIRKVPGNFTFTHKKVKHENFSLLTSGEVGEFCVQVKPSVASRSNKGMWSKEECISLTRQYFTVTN

binding result [1]: binds
B1: Affinity matured IL-10 (super-10, clone 5.1), soluble (ligand, UniProt P22301 19-178, looked up)
chain: SPGQGTQSENSCTHFPGYLPNMLRDLRDAFSRVKTFFQMKDQLDNLLLKESLLEDFKGYLGCQALSEMIQFYLEEVMPQAENQDPDIKAHVQSLGENLKDLRLWLRRCHRFLPCENKSKAVEQVKNAFNKLQEKGIYKAMSEFDIFINYIEAYMTMKIRN
binding result (cryo-EM structure): binds
